In patent US5573924 one finds Ka data, which are given here for one substance.

The target of test [1] is human CD27 ligand (CD27L), membrane-bound (human). Nature of the test: indirect binding assay on MP-1 cells (native CD27L): varying CD27/Fc, then 125I-mouse anti-human IgG; Scatchard analysis, low-affinity component.
Test [2] has the same target. The test can be described thus: indirect binding assay on MP-1 cells (native CD27L): varying CD27/Fc, then 125I-mouse anti-human IgG; Scatchard analysis, high-affinity component.
The target is the same in test [3]. Nature of the test: indirect binding assay on CV-1/EBNA cells transfected with cloned CD27L: varying CD27/Fc, then 125I-mouse anti-human IgG; Scatchard analysis, low-affinity component.
The target is the same in test [4]. The test can be described thus: indirect binding assay on CV-1/EBNA cells transfected with cloned CD27L: varying CD27/Fc, then 125I-mouse anti-human IgG; Scatchard analysis, high-affinity component.

With “CD27/Fc fusion protein (from UniProt P26842)”, the Ka in test [1] is 1.83e+08 M⁻¹; in test [2], 1.58e+09 M⁻¹; in test [3], 1.2e+08 M⁻¹; in test [4], 2.7e+09 M⁻¹.
